Test results: article PMC10786891, “Massively parallel profiling of RNA-targeting CRISPR-Cas13d”

molecular target: T1, EsCas13d, nuclease-dead (Eubacterium siraeum, UniProt B0MS50, R295A;H300A;R849A;H854A); test: crRNA (strand 1, pre-loaded); Mg2+; 40 mM Tris-HCl pH 7.5, 150 mM NaCl, 6 mM MgCl2, 1 mM DTT, 0.1% Tween-20, 0.2 mg/ml BSA; 25 C; 10 min per concentration, then washed; conditions: tags: His6-TwinStrep-SUMO cleaved; N-terminal SNAP kept (SNAP-Surface 488); label: 3' end held by stalled T7 RNA polymerase
T1 sequence: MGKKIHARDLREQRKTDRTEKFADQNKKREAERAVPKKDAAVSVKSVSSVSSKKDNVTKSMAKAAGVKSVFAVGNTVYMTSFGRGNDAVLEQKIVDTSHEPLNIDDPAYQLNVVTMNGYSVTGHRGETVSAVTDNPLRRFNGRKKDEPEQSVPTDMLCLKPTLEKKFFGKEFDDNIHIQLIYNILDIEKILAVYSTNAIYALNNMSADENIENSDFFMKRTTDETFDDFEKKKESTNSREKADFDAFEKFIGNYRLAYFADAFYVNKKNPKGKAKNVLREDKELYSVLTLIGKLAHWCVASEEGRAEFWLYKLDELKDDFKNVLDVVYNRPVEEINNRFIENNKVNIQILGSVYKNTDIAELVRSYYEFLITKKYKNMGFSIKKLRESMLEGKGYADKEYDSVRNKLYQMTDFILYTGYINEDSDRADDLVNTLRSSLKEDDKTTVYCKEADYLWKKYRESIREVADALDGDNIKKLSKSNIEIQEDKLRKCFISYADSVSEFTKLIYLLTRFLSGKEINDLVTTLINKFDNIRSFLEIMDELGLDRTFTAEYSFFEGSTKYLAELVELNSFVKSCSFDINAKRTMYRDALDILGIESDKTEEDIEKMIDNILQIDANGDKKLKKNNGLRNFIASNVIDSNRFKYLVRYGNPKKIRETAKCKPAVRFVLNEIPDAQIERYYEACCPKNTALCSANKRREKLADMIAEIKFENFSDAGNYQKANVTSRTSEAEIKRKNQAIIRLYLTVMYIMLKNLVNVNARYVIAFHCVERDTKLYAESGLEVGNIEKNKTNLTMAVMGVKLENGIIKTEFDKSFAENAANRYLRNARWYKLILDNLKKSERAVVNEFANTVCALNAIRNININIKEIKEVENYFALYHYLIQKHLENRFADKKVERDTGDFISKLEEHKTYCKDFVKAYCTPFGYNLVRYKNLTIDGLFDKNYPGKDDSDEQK

| Binder | Kd |
| --- | --- |
| target 1 insC 3' of 13,insC 3' of 9 (mixed) RNA 1: CACCCGUGCAAAAAUGCAGGGGUCUAAAACUGAGCGGAUAACCUCUCUAUGG RNA 2: GGGAAUGGAUCCACAUCUACGAAUUCGUACCAUAGAGAGCGUUACUCCGCUCACCGAGAUCGGAAGAGCACACGU | 17.9 ± 1.1 nM |
| target 1 C4A,A14C (mixed) RNA 1: CACCCGUGCAAAAAUGCAGGGGUCUAAAACUGAGCGGAUAACCUCUCUAUGG RNA 2: GGGAAUGGAUCCACAUCUACGAAUUCGUACCAUAGAGCGGUUAUCCGAUCACCGAGAUCGGAAGAGCACACGU | 11.9 ± 1.3 nM |
| target 1 U10C,G12A (mixed) RNA 1: CACCCGUGCAAAAAUGCAGGGGUCUAAAACUGAGCGGAUAACCUCUCUAUGG RNA 2: GGGAAUGGAUCCACAUCUACGAAUUCGUACCAUAGAGAGAUCAUCCGCUCACCGAGAUCGGAAGAGCACACGU | 13.8 ± 0.6 nM |
| target 1 insC 3' of 9,insG 3' of 7 (mixed) RNA 1: CACCCGUGCAAAAAUGCAGGGGUCUAAAACUGAGCGGAUAACCUCUCUAUGG RNA 2: GGGAAUGGAUCCACAUCUACGAAUUCGUACCAUAGAGAGGUUACUCGCGCUCACCGAGAUCGGAAGAGCACACGU | 11.4 ± 0.7 nM |
| target 1 C7A,A16U (mixed) RNA 1: CACCCGUGCAAAAAUGCAGGGGUCUAAAACUGAGCGGAUAACCUCUCUAUGG RNA 2: GGGAAUGGAUCCACAUCUACGAAUUCGUACCAUAGUGAGGUUAUACGCUCACCGAGAUCGGAAGAGCACACGU | 42.2 ± 2.5 nM |
| target 1 insA 3' of 7,insC 3' of 5 (mixed) RNA 1: CACCCGUGCAAAAAUGCAGGGGUCUAAAACUGAGCGGAUAACCUCUCUAUGG RNA 2: GGGAAUGGAUCCACAUCUACGAAUUCGUACCAUAGAGAGGUUAUCACGCCUCACCGAGAUCGGAAGAGCACACGU | 11.1 ± 0.5 nM |
| target 1 G5A,C6G (mixed) RNA 1: CACCCGUGCAAAAAUGCAGGGGUCUAAAACUGAGCGGAUAACCUCUCUAUGG RNA 2: GGGAAUGGAUCCACAUCUACGAAUUCGUACCAUAGAGAGGUUAUCGACUCACCGAGAUCGGAAGAGCACACGU | 8 ± 0.4 nM |
| target 1 A16G,G17A (mixed) RNA 1: CACCCGUGCAAAAAUGCAGGGGUCUAAAACUGAGCGGAUAACCUCUCUAUGG RNA 2: GGGAAUGGAUCCACAUCUACGAAUUCGUACCAUAAGGAGGUUAUCCGCUCACCGAGAUCGGAAGAGCACACGU | 84 ± 30 nM |
| target 1 insA 3' of 3,insU 3' of 2 (mixed) RNA 1: CACCCGUGCAAAAAUGCAGGGGUCUAAAACUGAGCGGAUAACCUCUCUAUGG RNA 2: GGGAAUGGAUCCACAUCUACGAAUUCGUACCAUAGAGAGGUUAUCCGCUACUACCGAGAUCGGAAGAGCACACGU | 9 ± 0.6 nM |
| target 1 insU 3' of 6,insU 3' of 1 (mixed) RNA 1: CACCCGUGCAAAAAUGCAGGGGUCUAAAACUGAGCGGAUAACCUCUCUAUGG RNA 2: GGGAAUGGAUCCACAUCUACGAAUUCGUACCAUAGAGAGGUUAUCCUGCUCAUCCGAGAUCGGAAGAGCACACGU | 14.1 ± 1.4 nM |
| target 1 G17A,A18G (mixed) RNA 1: CACCCGUGCAAAAAUGCAGGGGUCUAAAACUGAGCGGAUAACCUCUCUAUGG RNA 2: GGGAAUGGAUCCACAUCUACGAAUUCGUACCAUGAAGAGGUUAUCCGCUCACCGAGAUCGGAAGAGCACACGU | 81 ± 22 nM |
| target 1 G12C,A14G (mixed) RNA 1: CACCCGUGCAAAAAUGCAGGGGUCUAAAACUGAGCGGAUAACCUCUCUAUGG RNA 2: GGGAAUGGAUCCACAUCUACGAAUUCGUACCAUAGAGGGCUUAUCCGCUCACCGAGAUCGGAAGAGCACACGU | 27.5 ± 3.1 nM |
| target 1 insA 3' of 17,insU 3' of 14 (mixed) RNA 1: CACCCGUGCAAAAAUGCAGGGGUCUAAAACUGAGCGGAUAACCUCUCUAUGG RNA 2: GGGAAUGGAUCCACAUCUACGAAUUCGUACCAUAGAAGAUGGUUAUCCGCUCACCGAGAUCGGAAGAGCACACGU | 62 ± 11 nM |
| target 1 insG 3' of 20,insC 3' of 15 (mixed) RNA 1: CACCCGUGCAAAAAUGCAGGGGUCUAAAACUGAGCGGAUAACCUCUCUAUGG RNA 2: GGGAAUGGAUCCACAUCUACGAAUUCGUACCAGUAGAGCAGGUUAUCCGCUCACCGAGAUCGGAAGAGCACACGU | 89 ± 33 nM |
| target 1 G5C,G13C (mixed) RNA 1: CACCCGUGCAAAAAUGCAGGGGUCUAAAACUGAGCGGAUAACCUCUCUAUGG RNA 2: GGGAAUGGAUCCACAUCUACGAAUUCGUACCAUAGAGACGUUAUCCCCUCACCGAGAUCGGAAGAGCACACGU | 41 ± 5 nM |
| target 1 U3C,A9U (mixed) RNA 1: CACCCGUGCAAAAAUGCAGGGGUCUAAAACUGAGCGGAUAACCUCUCUAUGG RNA 2: GGGAAUGGAUCCACAUCUACGAAUUCGUACCAUAGAGAGGUUUUCCGCCCACCGAGAUCGGAAGAGCACACGU | 44 ± 6 nM |
| target 1 C2U,G13A (mixed) RNA 1: CACCCGUGCAAAAAUGCAGGGGUCUAAAACUGAGCGGAUAACCUCUCUAUGG RNA 2: GGGAAUGGAUCCACAUCUACGAAUUCGUACCAUAGAGAAGUUAUCCGCUUACCGAGAUCGGAAGAGCACACGU | 5.7 ± 0.33 nM |
| target 1 insU 3' of 6,insA 3' of 2 (mixed) RNA 1: CACCCGUGCAAAAAUGCAGGGGUCUAAAACUGAGCGGAUAACCUCUCUAUGG RNA 2: GGGAAUGGAUCCACAUCUACGAAUUCGUACCAUAGAGAGGUUAUCCUGCUCAACCGAGAUCGGAAGAGCACACGU | 12.8 ± 0.8 nM |
| target 1 insU 3' of 6,insC 3' of 1 (mixed) RNA 1: CACCCGUGCAAAAAUGCAGGGGUCUAAAACUGAGCGGAUAACCUCUCUAUGG RNA 2: GGGAAUGGAUCCACAUCUACGAAUUCGUACCAUAGAGAGGUUAUCCUGCUCACCCGAGAUCGGAAGAGCACACGU | 11.7 ± 0.8 nM |
| target 1 insG 3' of 14,insG 3' of 10 (mixed) RNA 1: CACCCGUGCAAAAAUGCAGGGGUCUAAAACUGAGCGGAUAACCUCUCUAUGG RNA 2: GGGAAUGGAUCCACAUCUACGAAUUCGUACCAUAGAGAGGGUUGAUCCGCUCACCGAGAUCGGAAGAGCACACGU | 16.7 ± 1 nM |
| target 1 insC 3' of 20,insA 3' of 4 (mixed) RNA 1: CACCCGUGCAAAAAUGCAGGGGUCUAAAACUGAGCGGAUAACCUCUCUAUGG RNA 2: GGGAAUGGAUCCACAUCUACGAAUUCGUACCACUAGAGAGGUUAUCCGCAUCACCGAGAUCGGAAGAGCACACGU | 6.4 ± 0.4 nM |
| target 1 C6A,G15U (mixed) RNA 1: CACCCGUGCAAAAAUGCAGGGGUCUAAAACUGAGCGGAUAACCUCUCUAUGG RNA 2: GGGAAUGGAUCCACAUCUACGAAUUCGUACCAUAGAUAGGUUAUCAGCUCACCGAGAUCGGAAGAGCACACGU | 27.5 ± 1.6 nM |
| target 1 G5C,U19A (mixed) RNA 1: CACCCGUGCAAAAAUGCAGGGGUCUAAAACUGAGCGGAUAACCUCUCUAUGG RNA 2: GGGAAUGGAUCCACAUCUACGAAUUCGUACCAAAGAGAGGUUAUCCCCUCACCGAGAUCGGAAGAGCACACGU | 34.1 ± 3 nM |
| target 1 del13,del19 (mixed) RNA 1: CACCCGUGCAAAAAUGCAGGGGUCUAAAACUGAGCGGAUAACCUCUCUAUGG RNA 2: GGGAAUGGAUCCACAUCUACGAAUUCGUACCAAGAGAGUUAUCCGCUCACCGAGAUCGGAAGAGCACACGU | 80 ± 28 nM |
| target 1 insA 3' of 2,insU 3' of 2 (mixed) RNA 1: CACCCGUGCAAAAAUGCAGGGGUCUAAAACUGAGCGGAUAACCUCUCUAUGG RNA 2: GGGAAUGGAUCCACAUCUACGAAUUCGUACCAUAGAGAGGUUAUCCGCUCAUACCGAGAUCGGAAGAGCACACGU | 12 ± 0.7 nM |
| target 1 U10G,G12U (mixed) RNA 1: CACCCGUGCAAAAAUGCAGGGGUCUAAAACUGAGCGGAUAACCUCUCUAUGG RNA 2: GGGAAUGGAUCCACAUCUACGAAUUCGUACCAUAGAGAGUUGAUCCGCUCACCGAGAUCGGAAGAGCACACGU | 20 ± 4 nM |
| target 1 U11G,A20U (mixed) RNA 1: CACCCGUGCAAAAAUGCAGGGGUCUAAAACUGAGCGGAUAACCUCUCUAUGG RNA 2: GGGAAUGGAUCCACAUCUACGAAUUCGUACCUUAGAGAGGGUAUCCGCUCACCGAGAUCGGAAGAGCACACGU | 77 ± 24 nM |
| target 1 A9G,G12A (mixed) RNA 1: CACCCGUGCAAAAAUGCAGGGGUCUAAAACUGAGCGGAUAACCUCUCUAUGG RNA 2: GGGAAUGGAUCCACAUCUACGAAUUCGUACCAUAGAGAGAUUGUCCGCUCACCGAGAUCGGAAGAGCACACGU | 6.8 ± 0.5 nM |
